Measurements taken from article PMC7954794, “Protein context shapes the specificity of SH3 domain-mediated interactions in vivo” (Nature Communications, 2021).

Assays:
[1] = system: Abp1 PPIs; test: DHFR-PCA of Abp1 SH3-swapped baits (Fig. 2B-D, S2C, S2F); type: cell-based, Saccharomyces cerevisiae; settings: DHFR-PCA, quadruplicate
Summary of the method: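 Interactions were scored by DHFR protein-fragment complementation. DHFR F[1,2]-tagged Abp1 strains, whose SH3 was swapped for yeast or human ortholog domains, were crossed on YPD at 30 °C for 48 h with a 1536-format array of 575 prey-DHFR F[3] strains and 40 negatives, giving four replicates per pair. PCA selection lasted 4 days after double diploid selection.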

[2] = system: growth of ABP1 SH3-swapped strains in hygromycin B; test: Hygromycin B resistance assay in liquid culture (Fig. S2E); type: cell-based, Saccharomyces cerevisiae; settings: 37 °C, 24 h, n = 3
Procedure: For the hygromycin B resistance assays in liquid cultures, the ABP1 SH3 swapped strains including the ABP1 SH3-deleted and ABP1 KO strain were grown overnight at 30 °C as precultures in synthetic complete medium with MSG. The next day, OD was measured with a TECAN Infinite F200 Pro plate reader, and the cultures were diluted to OD of 1.0 in sterile nanopure water. The different strains were further diluted at 0.1 OD by adding 25 µl of cultures to 225 µl of synthetic complete medium with MSG or with MSG and Hygromycin B 120 µg/mL in 96 wells plate (final concentration of 108 µg/mL). Cells were incubated in a TECAN Infinite M Nano plate reader at 37 °C for 24 h and OD was measured every 15 min.

B1: Abp1SH3 in Abp1: Abp1 with its own SH3 reintroduced by editing (control) (protein)
chain: MALEPIDYTTHSREIDAEYLKIVRGSDPDTTWLIISPNAKKEYEPESTGSSFHDFLQLFDETKVQYGLARVSPPGSDVEKIIIIGWCPDSAPLKTRASFAANFAAVANNLFKGYHVQVTARDEDDLDENELLMKISNAAGARYSIQTSSKQQGKASTPPVKKSFTPSKSPAPVSKKEPVKTPSPAPAAKISSRVNDNNDDDDWNEPELKERDFDQAPLKPNQSSYKPIGKIDLQKVIAEEKAKEDPRLVQKPTAAGSKIDPSSDIANLKNESKLKRDSEFNSFLGTTKPPSMTESSLKNDDDKVIKGFRNEKSPAQLWAERKAKQNSGNAETKAEAPKPEVPEDEPEGEPDVKDLKSKFEGLAASEKEEEEMENKFAPPPKKSEPTIISPKPFSKPQEPVKAEEAEQPKTDYKKIGNPLPGMHIEADNEEEPEENDDDWDDDEDEAAQPPLPSRNVASGAPVQKEEPEQEEIAPSLPSRNSIPAPKQEEAPEQAPEEEIEEEAEEAAPQLPSRSSAAPPPPPRRATPEKKPKENPWATAEYDYDAAEDNELTFVENDKIINIEFVDDDWWLGELEKDGSKGLFPSNYVSLGN
modifications: left off: DHFR F[1,2], C-terminal, kept | FLAG, C-terminal, kept
Q: How did the “Kendall's τ of PPI profile with WT Abp1” value [1] turn out when B1 was run?
A: 0.93

Q: And the Hygromycin phenotype [2]?
A: fully reproduces WT sensitivity
